Earlier results on one substance are cited in article PMC3708895.

pKd: −log10 of the molar value.

The data set deals with T4 capsid (gp23) (Escherichia virus T4) (UniProt P04535).
UniProt P04535, sequence (P04535 66-521): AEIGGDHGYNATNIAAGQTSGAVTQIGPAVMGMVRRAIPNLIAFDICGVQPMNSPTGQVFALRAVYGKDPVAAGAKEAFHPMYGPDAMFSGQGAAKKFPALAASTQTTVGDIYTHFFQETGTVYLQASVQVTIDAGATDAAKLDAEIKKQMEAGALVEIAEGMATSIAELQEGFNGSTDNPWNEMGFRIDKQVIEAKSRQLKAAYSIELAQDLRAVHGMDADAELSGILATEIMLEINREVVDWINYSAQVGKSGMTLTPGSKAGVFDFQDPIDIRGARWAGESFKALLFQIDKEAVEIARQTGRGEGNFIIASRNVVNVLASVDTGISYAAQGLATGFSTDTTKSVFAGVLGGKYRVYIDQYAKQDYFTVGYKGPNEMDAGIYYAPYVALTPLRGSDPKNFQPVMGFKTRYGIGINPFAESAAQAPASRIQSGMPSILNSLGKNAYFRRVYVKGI

With Soc (from UniProt P03715), the pKd is 7.12.
